According to publication PMC8327961, “Nse5/6 inhibits the Smc5/6 ATPase and modulates DNA substrate binding” (The EMBO Journal, 2021):
Substitutions are numbered along the chain they refer to. Names may count otherwise. One block for each binder: values may come before it.

Columns and labels:
Assay in all cases: cross-linking; BMOE (1 mM, 45 s) on hexamers with reporter cysteines, 0.5 µM in ATPase buffer; without or with Nse5/6 (0.625 µM), 2 mM ATP, plasmid DNA or 40 bp DNA; SDS-PAGE, Coomassie
Settings in all cases: both partners purified
[1] = molecular target: T1, Smc6-3C-Twin-Strep (S. cerevisiae, UniProt Q12749 1-1114)
T1 construct: Smc6, S. cerevisiae; stood in the assays as a subunit of the hexamer or octamer; also called Smc6-Twin-Strep; Smc6-3C-TS; source: E. coli (DE3) Rosetta, co-expressed with the other subunits of the hexamer, purified as part of the complex; not shown: Twin-Strep (after a 3C site), C-terminal, kept
T1 sequence (looked up): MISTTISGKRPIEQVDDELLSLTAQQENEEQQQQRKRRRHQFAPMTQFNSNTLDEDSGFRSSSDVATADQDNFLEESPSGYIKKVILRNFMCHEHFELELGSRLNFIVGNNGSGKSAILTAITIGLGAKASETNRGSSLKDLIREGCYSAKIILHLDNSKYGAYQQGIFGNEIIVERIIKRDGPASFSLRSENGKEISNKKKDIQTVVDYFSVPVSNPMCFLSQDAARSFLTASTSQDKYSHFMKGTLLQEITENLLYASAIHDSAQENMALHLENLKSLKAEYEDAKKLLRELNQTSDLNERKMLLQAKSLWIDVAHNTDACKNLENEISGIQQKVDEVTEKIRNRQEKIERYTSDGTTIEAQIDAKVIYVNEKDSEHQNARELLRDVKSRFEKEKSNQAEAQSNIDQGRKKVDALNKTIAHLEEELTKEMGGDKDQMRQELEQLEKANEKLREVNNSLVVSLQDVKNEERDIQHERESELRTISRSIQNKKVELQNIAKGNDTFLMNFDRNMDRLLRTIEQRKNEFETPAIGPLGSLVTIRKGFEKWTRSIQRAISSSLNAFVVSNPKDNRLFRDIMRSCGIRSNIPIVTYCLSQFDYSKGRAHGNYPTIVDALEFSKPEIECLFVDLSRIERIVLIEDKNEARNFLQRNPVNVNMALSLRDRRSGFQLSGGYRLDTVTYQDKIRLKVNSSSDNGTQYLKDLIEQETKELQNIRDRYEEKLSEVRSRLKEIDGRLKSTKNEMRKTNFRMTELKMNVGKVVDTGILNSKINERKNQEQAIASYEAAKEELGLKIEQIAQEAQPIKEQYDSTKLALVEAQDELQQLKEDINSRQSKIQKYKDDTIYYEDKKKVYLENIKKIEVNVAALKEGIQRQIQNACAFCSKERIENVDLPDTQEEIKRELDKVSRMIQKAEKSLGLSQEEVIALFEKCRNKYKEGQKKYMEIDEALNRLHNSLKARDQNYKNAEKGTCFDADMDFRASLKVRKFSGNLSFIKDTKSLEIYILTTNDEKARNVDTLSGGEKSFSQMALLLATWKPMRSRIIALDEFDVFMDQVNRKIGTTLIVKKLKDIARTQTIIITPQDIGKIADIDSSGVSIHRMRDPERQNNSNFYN

[2] = molecular target: T2, Smc6(N643C) (S. cerevisiae, UniProt Q12749 1-1114, N643C)
T2 construct: Smc6, S. cerevisiae; subunit of the Hinge-Cys (south) hexamer; also called Hinge-Cys south, Smc6; source: E. coli (DE3) Rosetta, purified as part of the hexamer
T2 sequence (looked up): T1 sequence (looked up) with N643C

[3] = molecular target: T3, Smc6(N572C) (S. cerevisiae, UniProt Q12749 1-1114, N572C)
T3 construct: Smc6, S. cerevisiae; subunit of the Hinge-Cys (north) hexamer; also called Hinge-Cys north, Smc6; source: E. coli (DE3) Rosetta, purified as part of the hexamer
T3 sequence (looked up): T1 sequence (looked up) with N572C

- binding result [1]: binds
B1: Smc5(N975C) (natural protein, S. cerevisiae, UniProt Q08204 1-1093, looked up)
chain: MTSLIDLGRYVERTHHGEDTEPRSKRVKIAKPDLSSFQPGSIIKIRLQDFVTYTLTEFNLSPSLNMIIGPNGSGKSTFVCAVCLGLAGKPEYIGRSKKVEDFIKNGQDVSKIEITLKNSPNVTDIEYIDARDETIKITRIITRSKRRSDYLINDYQVSESVVKTLVAQLNIQLDNLCQFLSQERVEEFARLKSVKLLVETIRSIDASLLDVLDELRELQGNEQSLQKDLDFKKAKIVHLRQESDKLRKSVESLRDFQNKKGEIELHSQLLPYVKVKDHKEKLNIYKEEYERAKANLRAILKDKKPFANTKKTLENQVEELTEKCSLKTDEFLKAKEKINEIFEKLNTIRDEVIKKKNQNEYYRGRTKKLQATIISTKEDFLRSQEILAQTHLPEKSVFEDIDIKRKEIINKEGEIRDLISEIDAKANAINHEMRSIQRQAESKTKSLTTTDKIGILNQDQDLKEVRDAVLMVREHPEMKDKILEPPIMTVSAINAQFAAYLAQCVDYNTSKALTVVDSDSYKLFANPILDKFKVNLRELSSADTTPPVPAETVRDLGFEGYLSDFITGDKRVMKMLCQTSKIHTIPVSRRELTPAQIKKLITPRPNGKILFKRIIHGNRLVDIKQSAYGSKQVFPTDVSIKQTNFYQGSIMSNEQKIRIENEIINLKNEYNDRKSTLDALSNQKSGYRHELSELASKNDDINREAHQLNEIRKKYTMRKSTIETLREKLDQLKREARKDVSQKIKDIDDQIQQLLLKQRHLLSKMASSMKSLKNCQKELISTQILQFEAQNMDVSMNDVIGFFNEREADLKSQYEDKKKFVKEMRDTPEFQSWMREIRSYDQDTKEKLNKVAEKYEEEGNFNLSFVQDVLDKLESEIAMVNHDESAVTILDQVTAELRELEHTVPQQSKDLETIKAKLKEDHAVLEPKLDDIVSKISARFARLFNNVGSAGAVRLEKPKDYAEWKIEIMVKFRDCAPLKKLDSHTQSGGERAVSTVLYMIALQEFTSAPFRVVDEINQGMDSRNERIVHKAMVENACAENTSQYFLITPKLLTGLHYHEKMRIHCVMAGSWIPNPSEDPKMIHFGETSNYSFD
notes: Smc5, S. cerevisiae; pairs with the natural cysteines C92 and C147 of Smc6; also called E-Cys, Smc5; source: E. coli (DE3) Rosetta, purified as part of the hexamer

- binding result [2]: binds
B2: Smc5(N526C) (natural protein, S. cerevisiae, UniProt Q08204 1-1093, looked up)
chain: B1 chain with N526C, C975N
notes: Smc5, S. cerevisiae; subunit of the Hinge-Cys (south) hexamer; also called Hinge-Cys south, Smc5; source: E. coli (DE3) Rosetta, purified as part of the hexamer

- binding result [3]: binds
B3: Smc5(V638C) (natural protein, S. cerevisiae, UniProt Q08204 1-1093, looked up)
chain: B1 chain with V638C, C975N
notes: Smc5, S. cerevisiae; subunit of the Hinge-Cys (north) hexamer; also called Hinge-Cys north, Smc5; source: E. coli (DE3) Rosetta, purified as part of the hexamer
